Results as given in patent US20110135672A1 (MEDICAL COLLEGE OF GEORGIA RESEARCH INSTITUTE INC GEORGIA, published 2011).

Molecular target: T1, ILT4 receptor on dendritic cells of ILT4 transgenic mice (UniProt Q8N423 22-597, limits assumed)
T1 construct: whole, on cells; also called LILRB2; CD85d
Test: immunoprecipitation with anti-ILT4 antibody, immunoblot with anti-Csk antibody
Method: The pellets from 5×10⁶ untreated DCs and DCs treated with HLA-G ligands and LPS were lysed in 1 ml RIPA buffer and precleared several times with Sepharose-coupled protein A (50% wt/vol slurry). Proteins were immunoprecipitated with saturating amounts of anti-ILT4 mAb and protein G Sepharose (Amersham Biosciences). Immunoprecipitation experiments were performed using several ILT4-specific antibodies, including polyclonal anti-ILT4 (C-12), anti-ILT4 (N-14), anti-ILT4 (P-14), anti-ILT (H-300), and anti-ILT4 (42D1) mAb (all from Santa Cruz Biotechnology, Santa Cruz, Calif.). […] The immunoblot was reprobed with anti-SHP-1 and anti-SHP-2 antibodies (both Upstate), and anti-Csk antibody (Santa Cruz Biotechnology). Signals were developed using the enhanced chemoluminescence (ECL) system (Amersham Biosciences). In some cases, densitometric scans of bands were obtained to determine the extent of ILT4-mediated signal inhibition.

T1 sequence (Q8N423 22-597 limits assumed): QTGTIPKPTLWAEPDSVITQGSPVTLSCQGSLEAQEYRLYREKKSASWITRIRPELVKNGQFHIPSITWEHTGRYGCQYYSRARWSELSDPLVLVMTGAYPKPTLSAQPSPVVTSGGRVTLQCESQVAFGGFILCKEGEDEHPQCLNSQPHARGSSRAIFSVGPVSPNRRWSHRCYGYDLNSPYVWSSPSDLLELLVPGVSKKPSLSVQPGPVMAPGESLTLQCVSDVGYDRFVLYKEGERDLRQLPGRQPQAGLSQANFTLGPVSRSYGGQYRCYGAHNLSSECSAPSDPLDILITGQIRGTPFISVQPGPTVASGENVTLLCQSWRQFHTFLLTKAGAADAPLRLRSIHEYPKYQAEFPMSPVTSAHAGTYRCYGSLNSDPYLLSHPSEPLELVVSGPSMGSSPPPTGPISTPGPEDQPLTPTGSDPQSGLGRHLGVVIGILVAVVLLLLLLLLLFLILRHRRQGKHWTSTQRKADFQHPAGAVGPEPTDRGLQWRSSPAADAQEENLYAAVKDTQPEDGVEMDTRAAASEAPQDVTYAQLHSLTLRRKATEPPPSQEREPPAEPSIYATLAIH

- binding result: no binding
B1: C-terminal Src kinase (Csk) (enzyme, mouse, UniProt P41241 2-450, looked up)
chain: SAIQAAWPSGTECIAKYNFHGTAEQDLPFCKGDVLTIVAVTKDPNWYKAKNKVGREGIIPANYVQKREGVKAGTKLSLMPWFHGKITREQAERLLYPPETGLFLVRESTNYPGDYTLCVSCEGKVEHYRIMYHASKLSIDEEVYFENLMQLVEHYTTDADGLCTRLIKPKVMEGTVAAQDEFYRSGWALNMKELKLLQTIGKGEFGDVMLGDYRGNKVAVKCIKNDATAQAFLAEASVMTQLRHSNLVQLLGVIVEEKGGLYIVTEYMAKGSLVDYLRSRGRSVLGGDCLLKFSLDVCEAMEYLEGNNFVHRDLAARNVLVSEDNVAKVSDFGLTKEASSTQDTGKLPVKWTAPEALREKKFSTKSDVWSFGILLWEIYSFGRVPYPRIPLKDVVPRVEKGYKMDAPDGCPPAVYEVMKNCWHLDAATRPTFLQLREQLEHIKTHELHL
